Measured values reported in US9289468B2, “Fusion protein comprising circularly permuted form of trail/Apo2L, coding gene and use thereof” (Beijing Sunbio Biotech Co. Ltd., priority 2011, dated 2016).
Entries after “also recorded” stand apart in the source; their conditions may differ.

What was measured:
[1] = test system: human multiple myeloma cell line U266; assay: Combination with melphalan, cell survival (ATPlite); type: cell-based
Experimental: FIG. 9. […] U266 cells are insensitive to CPT. At the concentration of 1 μg/ml, NCPT-1.M1 alone has a mild killing effect on U266 (<20%), but with the presence of melphalan (12.5˜50 μg/ml), both of them can cause enhanced killing effect. The cell viability was assayed with ATPlite luminescent system (PerkinElmer), the data as shown in this figure are all represented as the mean±standard deviation, n=4, #P<0.05, ##P<0.01 vs. melphalan group; *P<0.05 vs. NCPT-1.M1 group.

[2] = test system: H460 cells; assay: Cell survival by MTT assay with or without Caspase-8 inhibitor zIETD-fmk; type: cell-based, human; conditions: 24 h
Experimental: H460 cells were incubated with NCPT-1.M1 (1.2 or 10 ng/ml) in the presence or absence of Caspase-8 inhibitor zIETD-fmk (concentration of 30 μmmol/L, added 1 h earlier than NCPT-1.M1) for 24 h, and then cell survival rate was measured by MTT assay.
H460 cells were incubated with NCPT-1.M1 of 1.2 ng/ml and 10 ng/ml (the culture method is same as the above) for 24 h, and cell survival rates measured by MTT assay were 60% and 16%, respectively. […] Caspase-8 inhibitor zIETD-fmk (Santa Cruz) was added, and 1 h later, 1.2 ng/ml or 10 ng/ml NCPT-1.M1 was added and co-incubated for 24 h, then, the resulting cell survival rates were 100% and 90%, respectively.

[3] = test system: NCI-H460 cells; assay: Internucleosomal DNA fragmentation (agarose gel electrophoresis); type: cell-based, human; conditions: 15 ng/ml, 2 hours
Experimental: FIG. 5. The agarose gel electrophoresis analysis of internucleosomal DNA fragmentation of NCI-H460 cells after incubated with NCPT-1.M1 for varying time.
Marker: 200 bp-2000 bp DNA markers with 200 bp interval;
Control: solvent control;
2 h, 4 h, 6 h: represent incubation with 15 ng/ml NCPT-1.M1 for 2 h, 4 h, 6 h, respectively.
NCI-H460 cells at logarithmic growth phase were incubated with NCPT-1.M1 (a final concentration of […]) for 2 h, 4 h, 6 h, and the medium control group was not added with NCPT-1.M1. All adherent and floating cells (approximately 5×10^6) were collected, and DNA was extracted (Wen Jinkun, Principles and experimental techniques of medical molecular biology, 236-237 (1999)). DNA sample was removed and mixed with 6× loading buffer, and subjected to 1.8% agarose gel (a final concentration of ethidium bromide of 0.5 μg/ml) electrophoresis. The gel was observed under ultraviolet light source and photographed, and analyzed for DNA fragmentation. […] To the contrary, in the DNA electrophoresis of the medium control group, a band corresponding to a macromolecule is very near to the loading well, and there is no DNA fragmentation ladder. With the increasing incubation time with NCPT-1.M1, the DNA ladder becomes weaker and vague, and is illegible (FIG. 5), which might be due to DNA being degraded into smaller fragments.

[4] = test system: RPMI8226 xenograft tumor; assay: Inhibitory activity on xenograft tumor of human multiple myeloma; type: in vivo, athymic nude mice; conditions: 15 mg/kg i.p. once a day for 8 consecutive days
Experimental: FIG. 8. […] Athymic nude mice (Beijing Huafukang Biotechnology Co., Ltd.) were subcutaneously inoculated with RPMI8226 tumor cells (5×10^6/mouse). When the tumor grew to about 500 mm^3, the mice were divided into several groups, which were intraperitoneally injected with normal saline (control group), NCPT-1.M1 (15 mg/kg) and wild-type TRAIL (wtTRAIL, 15 mg/kg or 45 mg/kg) respectively once a day for 8 consecutive days. The tumor volumes were measured with a vernier caliper every two days.
Athymic nude mice (Beijing Huafukang Biotechnology Co., Ltd.) were subcutaneously inoculated with 5×10^6 RPMI8226 tumor cells/mouse. When the tumor grew to the volume of 500 mm3, the mice were divided into several groups, which were intraperitoneally injected with normal saline (negative control group), NCPT-1.M1 (15 mg/kg) and wtTRAIL (15 mg/kg or 45 mg/kg) once a day for 8 consecutive days. The tumor volumes were measured with a caliper every two days.

[5] = test system: NCI-H460 human lung tumor; assay: Combination with paclitaxel and carboplatin on human lung cancer xenograft tumor; type: in vivo, Balb/c nu athymic nude mice; conditions: H460 tumor nude mice
Experimental: 5-6 weeks old Balb/c nu athymic nude mice ♂ (provided by Institute of Experimental Animals, Chinese Academy of Medical Sciences) were subcutaneously inoculated with NCI-H460 human lung tumor. When the tumor grew to the size of about 150 mm3, the mice were divided into following and administered: normal saline control group (ip.), NCPT-1.M1 monotherapy group (15 mg/kg, i.p., once a day for 9 consecutive days), chemotherapy group (PC regimen: paclitaxel 30 mg/kg i.p. and carboplatin 60 mg/kg i.p., administered once on the first day), NCPT-1.M1 combination chemotherapy group (administration manner and dosage of each drug are same as the above). During the experiment, the tumor length diameter (a) and wide diameter (b) were measured every two days with a vernier caliper, and tumor volume (, TV) is calculated according to the following formula: TV=½×a×b^2. From the above, the relative tumor volume (RTV) was calculated according to following formula: RTV=Vt/V0. Wherein V0 is the tumor volume measured on the day of the administration, but before administration (i.e., d0), and Vt is the tumor volume measured every time. The relative tumor proliferation rate T/C (%) is used as an evaluation index.
T/C %=RTVT/RTVC*100%. (RTVT: RTV of the treatment group; […]: RTV of the negative control group).

[6] = NCPT-1.M1 15 mg/kg i.p. x9 days, paclitaxel 30 mg/kg, carboplatin 60 mg/kg i.p. once day 1

B1: NCPT-1.M1: MG+His6+NCPT-1 fusion protein, SEQ ID NO: 5 (protein)
chain: MGHHHHHHTLSSPNSKNEKALGRKINSWESSRSGHSFLSNLHLRNGELVIHEKGFYYIYSQTYFRFQEEIKENTKNDKQMVQYIYKYTSYPDPILLMKSARNSCWSKDAEYGLYSIYQGGIFELKENDRIFVSVTNEHLIDMDHEASFFGAFLVGGGGGGRVAAHITGTRGRSNT
modifications: NCPT-1.M1 polypeptide sequence
killing effect ([1]; 1 μg/ml alone, U266): < 20% | sensitivity of the cell line ([1]; U266 / U266B1): insensitive | cell survival rate ([2]; 1.2 ng/ml, 30 μmol/L zIETD-fmk added 1 h earlier): 100% | cell survival rate ([2]; 1.2 ng/ml, no inhibitor): 60% | cell survival rate ([2]; 10 ng/ml, 30 μmol/L zIETD-fmk added 1 h earlier): 90% | cell survival rate ([2]; 10 ng/ml, no inhibitor): 16% | DNA fragmentation ladder [3]: showed obvious ladder | Tumor growth rate compared with wtTRAIL 45 mg/kg [4]: significantly lower than that of TRAIL group with a dose of 45 mg/kg; also recorded: significantly lower than that of wtTRAIL group with a dose of 45 mg/kg | Body weight(g) begining [5, 6]: 19.9 ± 3.08 g | Body weight(g) ending [5, 6]: 20.9 ± 3.32 g | RTV ([5]; same regimens): 7.32 ± 3.736 | T/C ([5]; same regimens): 43.9% | Tumor size(mm^3) begining ([5]; same regimens, begining): 156 ± 82.6 mm^3 | Tumor size(mm^3) ending ([5]; same regimens, ending): 867 ± 255.7 mm^3
